Biological target: T1, GST-ERRα1 (Homo sapiens) (UniProt P11474)
T1 sequence: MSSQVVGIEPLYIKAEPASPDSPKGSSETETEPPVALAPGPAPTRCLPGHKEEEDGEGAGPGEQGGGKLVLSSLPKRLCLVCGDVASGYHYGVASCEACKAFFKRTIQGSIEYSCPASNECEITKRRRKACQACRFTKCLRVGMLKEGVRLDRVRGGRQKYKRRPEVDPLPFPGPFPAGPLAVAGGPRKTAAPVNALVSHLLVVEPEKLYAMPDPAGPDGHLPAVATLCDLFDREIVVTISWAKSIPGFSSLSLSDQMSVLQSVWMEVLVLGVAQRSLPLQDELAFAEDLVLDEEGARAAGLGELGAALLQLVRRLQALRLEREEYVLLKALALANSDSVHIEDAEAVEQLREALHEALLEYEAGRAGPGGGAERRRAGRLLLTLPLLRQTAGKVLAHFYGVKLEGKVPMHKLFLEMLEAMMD
Details: cell-free transcription, HeLa nuclear extract, approximate

## SV40 genome / late promoter template
  activity (fold repression): 3

Source: patent US20030152959
